Source: patent US20240400654A1
Residue numbers refer to the chain shown, from its start. Names may count otherwise. “And” between values parts separate entries of the source, which are not always exact repeats. Equal values may be shown once.

B1: KB001 mouse Fab VL L55H (Fab, V domains shown)
VH: EVQLKQSGPGLVAPSQSLSITCTVSGFSLSIYSVHWVRQPPGKGLEWLGMIWGGGSSDYNSALKSRLSISKDNSKSQVFLKMNSLQTDDTAMYYCARNGNFYAMDYWGQGTSVTVSS
VL: QIVLTQSPAIMSASLGERVTMTCTASSSVSSSFLHWYQQKPGSSPQLWIYSTSNHASGVPARFSGSGSGTSYSLTISSMEAEDAATYYCHQYHHSPYIYTFGGGTKLEIK
B2: KB001 mouse Fab VH V34I (Fab, V domains shown)
VH: B1 VH with V34I
VL: B1 VL with H55L
B3: KB001 mouse Fab VH S30N (Fab, V domains shown)
VH: B1 VH with S30N
VL: B1 VL with H55L
B4: KB001 mouse Fab VH S28E (Fab, V domains shown)
VH: B1 VH with S28E
VL: B1 VL with H55L
B5: KB001 mouse Fab VH Y106T (Fab, V domains shown)
VH: B1 VH with Y106T
VL: B1 VL with H55L
B6: KB001 mouse Fab VH Y106M (Fab, V domains shown)
VH: B1 VH with Y106M
VL: B1 VL with H55L
B7: KB001 mouse Fab VH A103S (Fab, V domains shown)
VH: B1 VH with A103S
VL: B1 VL with H55L
B8: KB001 mouse Fab VH S56A (Fab, V domains shown)
VH: B1 VH with S56A
VL: B1 VL with H55L
B9: KB001 mouse Fab VH S65V (Fab, V domains shown)
VH: B1 VH with S65V
VL: B1 VL with H55L
B10: KB001 mouse Fab VH K64A (Fab, V domains shown)
VH: B1 VH with K64A
VL: B1 VL with H55L
B11: KB001 mouse Fab VH G99S (Fab, V domains shown)
VH: B1 VH with G99S
VL: B1 VL with H55L
B12: KB001 mouse Fab VH S61D (Fab, V domains shown)
VH: B1 VH with S61D
VL: B1 VL with H55L
B13: KB001 mouse Fab VH S30Y (Fab, V domains shown)
VH: B1 VH with S30Y
VL: B1 VL with H55L
B14: KB001 mouse Fab VH S61Q (Fab, V domains shown)
VH: B1 VH with S61Q
VL: B1 VL with H55L
B15: KB001 mouse Fab VH I31T (Fab, V domains shown)
VH: B1 VH with I31T
VL: B1 VL with H55L
B16: KB001 mouse Fab VH S28P (Fab, V domains shown)
VH: B1 VH with S28P
VL: B1 VL with H55L
B17: KB001 mouse Fab VH S57Q (Fab, V domains shown)
VH: B1 VH with S57Q
VL: B1 VL with H55L
B18: KB001 mouse Fab VH Y106Q (Fab, V domains shown)
VH: B1 VH with Y106Q
VL: B1 VL with H55L
B19: KB001 mouse Fab VH Y106L (Fab, V domains shown)
VH: B1 VH with Y106L
VL: B1 VL with H55L
B20: KB001 mouse Fab VH Y59V (Fab, V domains shown)
VH: B1 VH with Y59V
VL: B1 VL with H55L
B21: KB001 mouse Fab VH S65T (Fab, V domains shown)
VH: B1 VH with S65T
VL: B1 VL with H55L
B22: KB001 mouse Fab VH S65D (Fab, V domains shown)
VH: B1 VH with S65D
VL: B1 VL with H55L
B23: KB001 mouse Fab VH S30A (Fab, V domains shown)
VH: B1 VH with S30A
VL: B1 VL with H55L
B24: KB001 mouse Fab VH I31M (Fab, V domains shown)
VH: B1 VH with I31M
VL: B1 VL with H55L
B25: KB001 mouse Fab VL L55K (Fab, V domains shown)
VH: B1 VH
VL: B1 VL with H55K
B26: KB001 mouse Fab VH S61T (Fab, V domains shown)
VH: B1 VH with S61T
VL: B1 VL with H55L
B27: KB001 mouse Fab VH Y106I (Fab, V domains shown)
VH: B1 VH with Y106I
VL: B1 VL with H55L
B28: KB001 mouse Fab VH S30E (Fab, V domains shown)
VH: B1 VH with S30E
VL: B1 VL with H55L
B29: KB001 mouse Fab VH Y106V (Fab, V domains shown)
VH: B1 VH with Y106V
VL: B1 VL with H55L
B30: KB001 mouse Fab VH N100E (Fab, V domains shown)
VH: B1 VH with N100E
VL: B1 VL with H55L
B31: KB001 mouse Fab VH S57A (Fab, V domains shown)
VH: B1 VH with S57A
VL: B1 VL with H55L
B32: KB001 mouse Fab VH Y106F (Fab, V domains shown)
VH: B1 VH with Y106F
VL: B1 VL with H55L
B33: KB001 mouse Fab VH G99Y (Fab, V domains shown)
VH: B1 VH with G99Y
VL: B1 VL with H55L
B34: KB001 mouse Fab VH Y106R (Fab, V domains shown)
VH: B1 VH with Y106R
VL: B1 VL with H55L
B35: KB001 mouse Fab VH K64R (Fab, V domains shown)
VH: B1 VH with K64R
VL: B1 VL with H55L
B36: KB001 mouse Fab VH Y106A (Fab, V domains shown)
VH: B1 VH with Y106A
VL: B1 VL with H55L
B37: KB001 mouse Fab VL L55V (Fab, V domains shown)
VH: B1 VH
VL: B1 VL with H55V
B38: KB001 mouse Fab VH S61N (Fab, V domains shown)
VH: B1 VH with S61N
VL: B1 VL with H55L
B39: KB001 mouse Fab VH I31V (Fab, V domains shown)
VH: B1 VH with I31V
VL: B1 VL with H55L
B40: KB001 mouse Fab VH S30G (Fab, V domains shown)
VH: B1 VH with S30G
VL: B1 VL with H55L
B41: KB001 mouse Fab VH S57V (Fab, V domains shown)
VH: B1 VH with S57V
VL: B1 VL with H55L

molecular target: HRgpA-6H (Porphyromonas gingivalis) (UniProt P28784); test: ELISA, coated HRgpA-6H
Sequence of UniProt P28784 (P28784 228-860 limits assumed): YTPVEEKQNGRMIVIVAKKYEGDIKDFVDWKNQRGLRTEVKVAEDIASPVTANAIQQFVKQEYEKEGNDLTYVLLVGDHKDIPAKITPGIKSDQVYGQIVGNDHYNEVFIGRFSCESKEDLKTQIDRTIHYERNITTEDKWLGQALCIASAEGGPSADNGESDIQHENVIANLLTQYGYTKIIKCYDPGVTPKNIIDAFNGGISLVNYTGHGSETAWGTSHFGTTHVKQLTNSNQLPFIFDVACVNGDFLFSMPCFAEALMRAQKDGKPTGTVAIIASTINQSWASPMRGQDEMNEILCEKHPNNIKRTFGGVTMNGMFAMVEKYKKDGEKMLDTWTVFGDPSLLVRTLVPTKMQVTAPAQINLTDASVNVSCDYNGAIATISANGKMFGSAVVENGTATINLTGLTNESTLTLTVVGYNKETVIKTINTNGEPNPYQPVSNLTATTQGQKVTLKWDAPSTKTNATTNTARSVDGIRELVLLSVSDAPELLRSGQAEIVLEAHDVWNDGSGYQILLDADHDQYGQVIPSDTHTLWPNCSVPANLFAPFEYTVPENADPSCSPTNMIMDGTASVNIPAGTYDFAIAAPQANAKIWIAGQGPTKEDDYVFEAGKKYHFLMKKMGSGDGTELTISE

What does the source list for B1?
OD450 nm: 0.695 and 0.731; Ratio OD(Variant)/OD(WT): 0.887 and 0.933

With B2 as the binder, how does the OD450 nm read?
Its OD450 nm is 0.891 and 0.868 and 0.866.

What about the Ratio OD(Variant)/OD(WT) of the same binder?
The Ratio OD(Variant)/OD(WT) was 1.08 and 1.05 (2×).

B3 was tested. Which OD450 nm did it give?
The OD450 nm was 0.565 and 0.56.

And the Ratio OD(Variant)/OD(WT)?
The Ratio OD(Variant)/OD(WT) was 1.12 and 1.11.

Which results are given for B4?
OD450 nm: 0.561 and 0.551 and 0.494; Ratio OD(Variant)/OD(WT): 1.04 and 1.02 and 0.915

How did the OD450 nm turn out when B5 was run?
Its OD450 nm is 0.827.

What about the Ratio OD(Variant)/OD(WT) of the same binder?
The Ratio OD(Variant)/OD(WT) was 1.07.

How did the OD450 nm turn out when B6 was run?
The OD450 nm was 0.794 and 0.84.

And the Ratio OD(Variant)/OD(WT)?
The Ratio OD(Variant)/OD(WT) was 1.03 and 1.09.

How did the OD450 nm turn out when B7 was run?
The OD450 nm was 0.909.

And the Ratio OD(Variant)/OD(WT)?
Its Ratio OD(Variant)/OD(WT) is 1.05.

Which results are given for B8?
OD450 nm: 0.891 and 0.86 and 0.82; Ratio OD(Variant)/OD(WT): 1.01 and 0.978 and 0.932

B9 was tested. Which OD450 nm did it give?
The OD450 nm was 0.867.

What about the Ratio OD(Variant)/OD(WT) of the same binder?
The Ratio OD(Variant)/OD(WT) was 1.05.

For B10, which OD450 nm is on record?
Its OD450 nm is 0.89.

And the Ratio OD(Variant)/OD(WT)?
Its Ratio OD(Variant)/OD(WT) is 1.08.

B11 was tested. Which OD450 nm did it give?
Its OD450 nm is 0.809.

What about the Ratio OD(Variant)/OD(WT) of the same binder?
Its Ratio OD(Variant)/OD(WT) is 1.01.

Which Ratio OD(Variant)/OD(WT) does the source give for B12 here?
Its Ratio OD(Variant)/OD(WT) is 1.14 and 1.11 (2×) and 0.956.

Which results are given for B13?
OD450 nm: 0.53 and 0.488; Ratio OD(Variant)/OD(WT): 1.05 and 0.967

With B14 as the binder, how does the OD450 nm read?
Its OD450 nm is 0.634.

What about the Ratio OD(Variant)/OD(WT) of the same binder?
The Ratio OD(Variant)/OD(WT) was 1.28.

What does the source list for B15?
OD450 nm: 0.56 and 0.534; Ratio OD(Variant)/OD(WT): 1.11 and 1.06

For B16, which OD450 nm is on record?
The OD450 nm was 0.545 and 0.452 and 0.514.

What about the Ratio OD(Variant)/OD(WT) of the same binder?
Its Ratio OD(Variant)/OD(WT) is 1.01 and 0.837 and 0.952.

Which results are given for B17?
OD450 nm: 0.915 and 0.863 and 0.836; Ratio OD(Variant)/OD(WT): 1.04 and 0.981 and 0.951

How did the OD450 nm turn out when B18 was run?
Its OD450 nm is 0.792.

What about the Ratio OD(Variant)/OD(WT) of the same binder?
The Ratio OD(Variant)/OD(WT) was 1.03.

Which results are given for B19?
OD450 nm: 0.791; Ratio OD(Variant)/OD(WT): 1.03

For B20, which OD450 nm is on record?
The OD450 nm was 0.83 and 0.79.

And the Ratio OD(Variant)/OD(WT)?
The Ratio OD(Variant)/OD(WT) was 1.05 and 0.999.

Which OD450 nm does the source give for B21 here?
The OD450 nm was 0.883.

What about the Ratio OD(Variant)/OD(WT) of the same binder?
The Ratio OD(Variant)/OD(WT) was 1.07.

Which results are given for B22?
OD450 nm: 0.866 and 0.897; Ratio OD(Variant)/OD(WT): 1.05 and 1.08

Which results are given for B23?
OD450 nm: 0.534 and 0.499 and 0.494; Ratio OD(Variant)/OD(WT): 1.06 and 0.989 and 0.979

Which OD450 nm does the source give for B24 here?
The OD450 nm was 0.522.

What about the Ratio OD(Variant)/OD(WT) of the same binder?
The Ratio OD(Variant)/OD(WT) was 1.03.

What does the source list for B25?
OD450 nm: 0.769; Ratio OD(Variant)/OD(WT): 0.981

For B26, which OD450 nm is on record?
The OD450 nm was 0.543 and 0.447.

And the Ratio OD(Variant)/OD(WT)?
The Ratio OD(Variant)/OD(WT) was 1.1 and 0.906.

For B27, which OD450 nm is on record?
The OD450 nm was 0.803.

What about the Ratio OD(Variant)/OD(WT) of the same binder?
Its Ratio OD(Variant)/OD(WT) is 1.04.

B28 was tested. Which OD450 nm did it give?
Its OD450 nm is 0.567.

And the Ratio OD(Variant)/OD(WT)?
The Ratio OD(Variant)/OD(WT) was 1.12.

With B29 as the binder, how does the OD450 nm read?
The OD450 nm was 0.795 and 0.84 and 0.802.

What about the Ratio OD(Variant)/OD(WT) of the same binder?
Its Ratio OD(Variant)/OD(WT) is 1.03 and 1.09 and 1.04.

Which OD450 nm does the source give for B30 here?
The OD450 nm was 0.886.

And the Ratio OD(Variant)/OD(WT)?
Its Ratio OD(Variant)/OD(WT) is 1.05.

Which results are given for B31?
OD450 nm: 0.922; Ratio OD(Variant)/OD(WT): 1.05

What does the source list for B32?
OD450 nm: 0.815 and 0.856; Ratio OD(Variant)/OD(WT): 1.06 and 1.11

With B33 as the binder, how does the OD450 nm read?
The OD450 nm was 0.835.

What about the Ratio OD(Variant)/OD(WT) of the same binder?
The Ratio OD(Variant)/OD(WT) was 1.05.

Which OD450 nm does the source give for B34 here?
Its OD450 nm is 0.793.

And the Ratio OD(Variant)/OD(WT)?
The Ratio OD(Variant)/OD(WT) was 1.03.

What does the source list for B35?
OD450 nm: 0.87; Ratio OD(Variant)/OD(WT): 1.05

What does the source list for B36?
OD450 nm: 0.821 and 0.835; Ratio OD(Variant)/OD(WT): 1.07 and 1.09

What does the source list for B37?
OD450 nm: 0.706; Ratio OD(Variant)/OD(WT): 0.901

How did the OD450 nm turn out when B38 was run?
Its OD450 nm is 0.537.

And the Ratio OD(Variant)/OD(WT)?
Its Ratio OD(Variant)/OD(WT) is 1.09.

Which results are given for B39?
OD450 nm: 0.537 and 0.521; Ratio OD(Variant)/OD(WT): 1.06 and 1.03

For B40, which OD450 nm is on record?
Its OD450 nm is 0.533 and 0.515.

What about the Ratio OD(Variant)/OD(WT) of the same binder?
The Ratio OD(Variant)/OD(WT) was 1.06 and 1.02.

Which results are given for B41?
OD450 nm: 0.911 and 0.869; Ratio OD(Variant)/OD(WT): 1.04 and 0.988
